Measurements: patent publication US20210130420A1, “RECOMBINANT BINDING PROTEINS TARGETING HER2 AND SERUM ALBUMIN, AND THEIR USES” (Molecular Partners AG, priority 2016, published 2021)

Experiments:
HER3 = assay: Phosphorylation state ELISA, BT474 cells; assay type: cell-based, human; settings: 100 nM, 18 hours
human serum albumin = human serum albumin (Homo sapiens, UniProt P02768); assay: Size exclusion chromatography coupled to static light scattering with human serum albumin; assay type: binding; settings: 30 μM Protein #21, 60 μM human serum albumin, 1:2 mixture in PBS
Method: Protein #21 was expressed and purified as described in Example 1. Size exclusion chromatography coupled to static light scattering (Superdex 200 10/300GL (GE Healthcare), Agilent 1200 (Life Technologies), Wyatt Optilab Trex (RI) and MiniDawnTreos (MALS)) was performed using 30 μM Protein #21, 60 μM human serum albumin (CSL Behring 20% solution was used to purify the monomeric fraction of human serum albumin by size exclusion chromatography on a Superdex 200 26/60 column (GE Healthcare)), or a 1:2 mixture of the two, in PBS.

HER2 [1] = target: T1, HER2 (Homo sapiens, UniProt P04626); assay: Phosphorylation state ELISA, BT474 cells; assay type: cell-based; design: BT474 cells were treated for 18 hours with either Protein #21 (100 nM); host or cells: BT474; settings: 100 nM, 18 hours
GXA281 = assay: Gastric cancer PDX mouse model GXA281; assay type: in vivo; settings: FIG. 4E; Protein #21 40 mg/kg every three days for 6 times i.v.; Lapatinib 100 mg/kg/day for 21 days
Method: In a similar experiment, Protein #21 was further tested in the gastric cancer PDX mouse model GXA281, well known to the person skilled in the art, in comparison to the standard of care Lapatinib (FIG. 4E). Briefly, tumor implantation and tumor growth monitoring was done as described above. Lapatinib was dosed at 100 mg/kg/day for 21 days daily […]. and Protein #21 at 40 mg/kg every three days for 6 times i.v.

AKT = assay: Phospho-site specific ELISA, BT474 cells; assay type: cell-based, human; settings: 100 nM, 18 hours
HER1/EGFR = assay: Phosphorylation state ELISA, BT474 cells; assay type: cell-based, human; settings: 100 nM, 18 hours
MAPK1 and MAPK3 = assay: Phospho-proteome mass spectrometry; assay type: cell-based; settings: 100 nM, 18 hours
Description: Protein #21 was expressed and purified as described in Example 1. […] Cells were then subjected to a phospho-proteome mass-spectrometry analysis as described by Britton, D., et al. (Britton, D., Zen, Y., Quaglia, A., Selzer, S., Mitra, VI., Lössner, C., Jung, S., Bohm, G., Schmid, P., Prefot, P., Hoehle, C., Koncarevic, S., Gee, J., Nicholson, R., Ward, M., Castellano, L., Stebbing, J., Zucht, H. D., Sarker, D., Heaton, N., and Pike, I., 2014. PLOS One 9 (3), e90948). […] At other phosphorylation sites, phosphorylation is increased (772).

HER2 [2] = target: T1, HER2; assay: Phospho-proteome mass spectrometry of BT474 cells; assay type: cell-based; design: host or cells: BT474; settings: 100 nM, 18 hours
Description: Protein #21 was expressed and purified as described in Example 1. […] Cells were then subjected to a phospho-proteome mass-spectrometry analysis as described by Britton, D., et al. (Britton, D., Zen, Y., Quaglia, A., Selzer, S., Mitra, VI., Lössner, C., Jung, S., Bohm, G., Schmid, P., Prefot, P., Hoehle, C., Koncarevic, S., Gee, J., Nicholson, R., Ward, M., Castellano, L., Stebbing, J., Zucht, H. D., Sarker, D., Heaton, N., and Pike, I., 2014. PLOS One 9 (3), e90948).

[3] = Storage stability in PBS analysed by size-exclusion chromatography; assay type: physicochemical; settings: 10 mg/ml in PBS
Method: A storage stability improvement is also observed, when testing the storage stability of Protein #21 and Protein #22 (recombinant binding proteins consisting of the amino acid sequences corresponding to SEQ ID NOs: 21 and 22, respectively). Protein #21 and Protein #22 are prepared as described in Example 1, samples are concentrated to 10 mg/ml in PBS and stored for 1 month at −80° C. in or at 40° C. in glass vials, followed by analysis on standard size-exclusion chromatography.

[4] = Pharmacokinetic comparison of Protein #21 with Protein #33; assay type: in vivo; settings: variant lacking the C-terminal serum albumin binding domain
Description: Many options are known in the art for pharmacokinetic engineering including PEGylation, polypeptide extension, Fc-fusion, serum albumin-fusion, and binding to serum albumin, amongst others (Kontermann, R (Ed.) “Therapeutic proteins: strategies to modulate their plasma half-lives”, Wiley-VCH Verlag GmbH, 2012, ISBN 978-3-527-32849-9). Starting from e.g. the combination of designed ankyrin repeat domains with binding specificity for HER2 comprising SEQ ID NOs: 16 and 17, there are hundreds of potential drug candidate variants (choice of pharmacokinetic modification engineering, choice of polypeptide linker (e.g. SEQ ID NOs: 2 to 9 amongst many others), amongst other aspects). […] Results of the effect of the choice of the polypeptide linker are shown e.g. in Example 10.
For the studies in this example Protein #21-His, Protein #24-His, Protein #28-His, Protein #29-His, and Protein #30-His were prepared according to Example 1. Protein #28-His was additionally PEGylated using a 40 kDa PEG moiety (NOF Sunbright GL2-400MA) by maleimid coupling of the PEG-moiety onto the free C-terminal cysteine of Protein #28-His, followed by purification to homogeneity using standard purification methods, procedures well known to the person skilled in the art. Pharmacokinetic analyses in mouse or cynomolgus monkey were performed as described in Examples 8 and 9.

B1: Protein #21: SEQ ID NO: 21; HER2 binding domains (SEQ ID NOs: 16, 17) flanked by two serum albumin binding domains (SEQ ID NO: 14), SEQ ID NO: 9 linkers (protein)
chain: GSDLGKKLLEAARAGQDDEVRELLKAGADVNAKDYFSHTPLHLAARNGHLKIVEVLLKAGADVNAKDFAGKTPLHLAANEGHLEIVEVLLKAGADVNAQDIFGKTPADIAADAGHEDIAEVLQKAAGSPTPTPTTPTPTPTTPTPTPTGSDLGIKLLFAAAKGQDDEVRELLKAGADVNAKDFQGVTPLHIAAQSGHLEIVEVLLKAGADVNAKDVTGDTPLHLAAQHGHLEIVEVLLKAGADVNAQDERGWTPADLAADWGHEDIAEVLQKAAGSPTPTPTTPTPTPTTPTPTPTGSDLGKKLLEAARAGQDDEVRELLKAGADVNAKDEYGLTPLYLATAHGHLEIVEVLLKAGADVNAVDAIGFTPLHLAAFIGHLEIAEVLLKAGADVNAQDKFGKTPADIAAGAGNEDIAEVLQKAAGSPTPTPTTPTPTPTTPTPTPTGSDLGKKLLEAARAGQDDEVRELLKAGADVNAKDYFSHTPLHLAARNGHLKIVEVLLKAGADVNAKDFAGKTPLHLAANEGHLEIVEVLLKAGADVNAQDIFGKTPADIAADAGHEDIAEVLQKAA
modifications: Protein comprising four designed ankyrin repeat domains
HER3 Pan-Phospho-Tyrosine (HER3): 0.45 fold change to PBS | simultaneous binding of two serum albumin molecules (human serum albumin): can bind two serum albumin molecules simultaneously | HER2 Pan-Phospho-Tyrosine (HER2 [1]): 0.04 fold change to PBS | inhibition of tumor growth (GXA281): strong inhibition of tumor growth compared to Lapatinib | AKT S473 phosphorylation (AKT): 0.16 fold change to PBS | HER1/EGFR Pan-Phospho-Tyrosine (HER1/EGFR): 0.40 fold change to PBS | phosphorylated peptides that map to MAPK1 and MAPK3 (MAPK1 and MAPK3): considerably downregulated | HER2 S1073/S1078/S1083 phosphorylation (HER2 [2]): 0.35 fold change to PBS | HER2 S1174 phosphorylation (HER2 [2]): 0.59 fold change to PBS | HER2 T772 phosphorylation (HER2 [2]): 10.27 fold change to PBS | HER2 T1172/S1174 phosphorylation (HER2 [2]): 0.44 fold change to PBS | HER2 T1240 phosphorylation (HER2 [2]): 0.09 fold change to PBS | HER2 Y1139/S1151 phosphorylation (HER2 [2]): 0.88 fold change to PBS | monomeric species compared to Protein #22 ([3]; 1 month at 40° C.): significantly more monomeric species | elution profiles upon storage at −80° C. ([3]; 1 month at −80° C.): equivalent elution profiles | pharmacokinetic properties compared to Protein #33 [4]: markedly improved pharmacokinetic properties, in particular a longer terminal half-life
